Reference: US20030143225A1 (Genentech, published 2003)

Experiments:
[1] = target: truncated transmembrane tissue factor comprising residues 1-243, relipidated (human) (UniProt P13726); test: cell-based or functional assay
[2] = target: T1, soluble tissue factor composed of the extracellular domain residues 1-219 of hTF (human, UniProt P13726 33-251); test: SPR (BIAcore 2000), antibody immobilized, sTF in solution, 1:1 model
T1 construct: Expressed in E. coli; also called sTF
Procedure: The binding affinity of sTF for immobilized antibody was determined by surface plasmon resonance (SPR) measurements on a Pharmacia BIAcore 2000 instrument (Pharmacia Biosensor). Each antibody was coupled to the sensor chip surface at a level of 2000-3000 resonance units using amine coupling chemistry (Pharmacia Biosensor). In a typical experiment, 4 different antibodies were immobilized on each of the 4 flow cells of the sensor chip so that sensorgrams could be recorded simultaneously for all 4 antibodies. […] The kinetic constants were determined by non-linear regression analysis according to a 1:1 binding model using software supplied by the manufacturer. Dissociation constants were calculated from the kinetic constants. […] These solutions were incubated at ambient temperature for 30 minutes prior to injection onto the sensor chip. […] Affinities were determined by SPR measurements as described above for the wild-type protein.

[3] = target: relipidated human tissue factor (Innovin) (human, UniProt P13726 33-295); test: cell-based or functional assay
[4] = target: tissue factor on human J82 cells (human, UniProt P13726 33-295); test: cell-based or functional assay

Sequence of truncated transmembrane tissue factor comprising residues 1-243, relipidated (human) (P13726 33-275): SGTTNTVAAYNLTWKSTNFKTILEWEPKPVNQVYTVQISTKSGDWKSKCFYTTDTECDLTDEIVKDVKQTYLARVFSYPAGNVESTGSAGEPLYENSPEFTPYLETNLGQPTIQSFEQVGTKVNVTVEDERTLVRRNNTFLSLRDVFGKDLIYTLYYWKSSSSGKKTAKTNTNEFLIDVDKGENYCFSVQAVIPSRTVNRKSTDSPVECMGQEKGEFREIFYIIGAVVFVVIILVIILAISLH

Which concentration that inhibited the initial rate of FX activation in human plasma by 50% [1] does the source give for HTF1 antibody here?
The concentration that inhibited the initial rate of FX activation in human plasma by 50% was 150 µg/mL.

B1: murine anti-TF antibody 5G6 (antibody, V domains shown)
VH: EVLLQQSGPELVKPGASVKIPCKASGYTFTEYNMDWVKQSHGKSLEWIGDINPNNGNTIYNQKFKGKATLTVDKSSTTAYLELRSLTSEDTAVYFCARDHDYYFDFWGQGTTLTVSS
VL: DIQMTQTPASQSASLGESVTITCLASQTIDTWLAWYQQKPGKSPQLLIYAATSLADGVPSRFSGSGSGTKFSFKISSLQAEDFVSYYCQQPYSSPYTFGGGTKLELKR
notes: Murine monoclonal antibody purified from ascites
Which results are given for B1?
Kd [2]: 1.7 nM; koff [2]: 0.0005 s⁻¹; kon [2]: 300000 M⁻¹ s⁻¹; antibody concentration that prolonged the clotting time by 1.5-fold (PT assay) [3]: 27 µg/mL; IC50 of FPA generation, human ex-vivo blood flow system [4]: 50 µg/mL
